In paper doi:10.1101/2023.07.03.547386:

Target: ATG8CL (recombinant, purified) (potato)
Assay: ITC

ATG8CL (recombinant, purified) (potato), sequence (M1C146 whole entry): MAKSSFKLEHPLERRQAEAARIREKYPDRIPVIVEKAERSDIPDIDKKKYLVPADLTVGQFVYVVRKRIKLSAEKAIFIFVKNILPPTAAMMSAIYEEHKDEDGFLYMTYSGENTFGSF

Work on Rab3GAPL AIM peptide (Rab3GAPL-AIMp) yielded a Kd of 962 nM and a stoichiometry N of 1.03.
